This note sets out measurements from patent publication US20250361282A1 (Bayer, published 2025).

What all share (assay): cell-based or functional assay
Assay [1] addresses T1, rat NPR-B (rat, UniProt P16067 17-1047).
T1 sequence (looked up): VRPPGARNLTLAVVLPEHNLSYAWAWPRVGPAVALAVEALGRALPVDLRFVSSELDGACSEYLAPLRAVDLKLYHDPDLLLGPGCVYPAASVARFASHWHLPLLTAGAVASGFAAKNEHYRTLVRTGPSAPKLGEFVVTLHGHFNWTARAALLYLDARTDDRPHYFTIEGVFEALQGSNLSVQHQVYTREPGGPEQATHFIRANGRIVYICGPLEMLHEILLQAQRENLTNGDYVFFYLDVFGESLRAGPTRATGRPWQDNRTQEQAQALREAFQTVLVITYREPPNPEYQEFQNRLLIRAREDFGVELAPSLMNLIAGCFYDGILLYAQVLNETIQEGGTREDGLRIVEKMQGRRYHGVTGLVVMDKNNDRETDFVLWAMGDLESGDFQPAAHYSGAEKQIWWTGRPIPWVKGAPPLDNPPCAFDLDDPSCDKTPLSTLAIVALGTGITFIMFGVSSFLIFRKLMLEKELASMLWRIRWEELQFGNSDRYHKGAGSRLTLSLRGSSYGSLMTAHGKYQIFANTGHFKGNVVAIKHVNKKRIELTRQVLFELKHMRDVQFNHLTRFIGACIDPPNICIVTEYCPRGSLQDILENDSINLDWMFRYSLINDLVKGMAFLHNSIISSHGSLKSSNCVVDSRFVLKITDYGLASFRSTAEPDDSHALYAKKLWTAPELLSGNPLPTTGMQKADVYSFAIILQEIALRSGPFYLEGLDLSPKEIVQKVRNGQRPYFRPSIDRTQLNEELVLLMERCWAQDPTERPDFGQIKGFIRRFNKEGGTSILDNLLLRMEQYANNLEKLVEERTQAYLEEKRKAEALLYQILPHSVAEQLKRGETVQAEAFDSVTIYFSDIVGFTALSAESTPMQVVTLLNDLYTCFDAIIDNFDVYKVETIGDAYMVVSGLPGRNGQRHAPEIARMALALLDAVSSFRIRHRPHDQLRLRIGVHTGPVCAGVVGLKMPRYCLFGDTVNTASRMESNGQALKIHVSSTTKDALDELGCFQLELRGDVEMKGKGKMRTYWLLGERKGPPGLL

Assay [2] has as its target T2, rat NPR-A (rat, UniProt P18910 29-1057).
T2 sequence (looked up): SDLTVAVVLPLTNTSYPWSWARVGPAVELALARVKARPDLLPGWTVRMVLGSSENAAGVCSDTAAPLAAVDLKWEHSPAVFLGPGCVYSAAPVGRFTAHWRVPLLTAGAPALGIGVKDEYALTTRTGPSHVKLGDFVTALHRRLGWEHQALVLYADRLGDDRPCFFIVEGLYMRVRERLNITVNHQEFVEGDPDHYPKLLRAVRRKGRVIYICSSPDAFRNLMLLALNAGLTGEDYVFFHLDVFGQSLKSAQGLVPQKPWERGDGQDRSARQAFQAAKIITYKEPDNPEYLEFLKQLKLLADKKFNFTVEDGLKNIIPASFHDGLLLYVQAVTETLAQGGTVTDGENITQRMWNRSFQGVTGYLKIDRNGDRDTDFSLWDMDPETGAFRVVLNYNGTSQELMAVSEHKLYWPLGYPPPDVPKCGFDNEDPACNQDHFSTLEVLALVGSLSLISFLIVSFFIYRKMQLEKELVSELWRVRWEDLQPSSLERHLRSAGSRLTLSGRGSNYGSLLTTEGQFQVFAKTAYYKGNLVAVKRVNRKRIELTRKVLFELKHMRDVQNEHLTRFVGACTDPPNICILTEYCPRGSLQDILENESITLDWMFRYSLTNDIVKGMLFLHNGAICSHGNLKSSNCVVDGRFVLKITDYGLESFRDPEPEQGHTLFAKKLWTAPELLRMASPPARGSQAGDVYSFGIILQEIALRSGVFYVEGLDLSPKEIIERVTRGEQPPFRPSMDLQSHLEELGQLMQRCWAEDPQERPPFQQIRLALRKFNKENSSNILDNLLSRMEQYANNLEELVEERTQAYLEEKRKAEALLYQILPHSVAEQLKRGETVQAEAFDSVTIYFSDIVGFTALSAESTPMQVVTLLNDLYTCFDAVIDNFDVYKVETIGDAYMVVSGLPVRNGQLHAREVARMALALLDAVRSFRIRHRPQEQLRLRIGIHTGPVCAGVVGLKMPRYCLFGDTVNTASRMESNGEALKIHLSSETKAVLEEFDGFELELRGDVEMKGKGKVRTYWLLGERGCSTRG

The target of assay [3] is T3, human NPRA (hNPRA) (human, UniProt P16066 33-1061).
T3 sequence (looked up): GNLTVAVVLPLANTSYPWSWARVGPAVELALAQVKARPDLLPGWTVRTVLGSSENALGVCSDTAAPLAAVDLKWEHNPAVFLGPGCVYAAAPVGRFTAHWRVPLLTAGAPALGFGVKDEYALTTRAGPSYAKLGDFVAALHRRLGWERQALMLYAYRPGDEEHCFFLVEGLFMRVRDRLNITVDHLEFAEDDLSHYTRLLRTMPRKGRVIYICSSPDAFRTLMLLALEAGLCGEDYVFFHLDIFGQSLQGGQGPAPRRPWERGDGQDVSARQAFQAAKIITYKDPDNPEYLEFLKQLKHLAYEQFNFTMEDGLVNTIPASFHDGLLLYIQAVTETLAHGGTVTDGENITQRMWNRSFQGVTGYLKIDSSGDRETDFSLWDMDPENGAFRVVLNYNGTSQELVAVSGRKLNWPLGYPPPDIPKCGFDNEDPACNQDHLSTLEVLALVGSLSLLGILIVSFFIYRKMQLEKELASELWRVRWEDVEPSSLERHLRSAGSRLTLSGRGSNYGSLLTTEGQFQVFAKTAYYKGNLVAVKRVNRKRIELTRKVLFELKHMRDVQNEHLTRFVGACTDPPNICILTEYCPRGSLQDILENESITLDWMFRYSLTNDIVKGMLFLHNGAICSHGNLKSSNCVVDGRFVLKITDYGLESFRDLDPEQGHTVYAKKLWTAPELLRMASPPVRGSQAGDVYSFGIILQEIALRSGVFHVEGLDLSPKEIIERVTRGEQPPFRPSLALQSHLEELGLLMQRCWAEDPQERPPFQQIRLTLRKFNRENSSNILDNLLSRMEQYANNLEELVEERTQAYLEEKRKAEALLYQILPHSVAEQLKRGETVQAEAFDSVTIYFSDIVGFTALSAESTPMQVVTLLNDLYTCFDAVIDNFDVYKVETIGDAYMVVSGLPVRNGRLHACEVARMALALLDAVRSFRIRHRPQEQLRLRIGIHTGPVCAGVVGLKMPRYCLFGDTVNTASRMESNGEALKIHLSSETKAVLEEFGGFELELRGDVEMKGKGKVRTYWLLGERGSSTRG

B1: TPP-12377 (antibody)
heavy: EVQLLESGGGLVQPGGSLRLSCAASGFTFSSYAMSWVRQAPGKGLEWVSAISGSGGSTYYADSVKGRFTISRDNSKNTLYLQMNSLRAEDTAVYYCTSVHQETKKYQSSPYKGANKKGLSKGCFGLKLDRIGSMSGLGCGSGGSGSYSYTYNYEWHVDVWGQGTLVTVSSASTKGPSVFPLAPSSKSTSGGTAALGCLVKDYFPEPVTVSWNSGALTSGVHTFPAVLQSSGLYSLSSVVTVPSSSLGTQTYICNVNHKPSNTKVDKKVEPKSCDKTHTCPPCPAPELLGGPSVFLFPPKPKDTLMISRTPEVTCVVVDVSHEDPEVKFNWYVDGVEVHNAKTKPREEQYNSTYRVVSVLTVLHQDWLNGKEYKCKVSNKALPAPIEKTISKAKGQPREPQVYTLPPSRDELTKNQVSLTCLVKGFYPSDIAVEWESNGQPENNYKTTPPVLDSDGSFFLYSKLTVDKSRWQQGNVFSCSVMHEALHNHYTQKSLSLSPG
light: QSVLTQPPSVSGAPGQRVTISCTGSSSNIGAGYDVHWYQQLPGTAPKLLIYGNSNRPSGVPDRFSGSKSGTSASLAITGLQAEDEADYYCQSYDSSLSGVVFGGGTKLTVLGQPKAAPSVTLFPPSSEELQANKATLVCLISDFYPGAVTVAWKADSSPVKAGVETTTPSKQSNNKYAASSYLSLTPEQWKSHRSYSCQVTHEGSTVEKTVAPTECS
On to B1, for which, in assay [1], the “EC50, luminescence signal of rat NPR-B reporter cells” value was 4.1 nM.

B2: TPP-5661 (antibody)
heavy: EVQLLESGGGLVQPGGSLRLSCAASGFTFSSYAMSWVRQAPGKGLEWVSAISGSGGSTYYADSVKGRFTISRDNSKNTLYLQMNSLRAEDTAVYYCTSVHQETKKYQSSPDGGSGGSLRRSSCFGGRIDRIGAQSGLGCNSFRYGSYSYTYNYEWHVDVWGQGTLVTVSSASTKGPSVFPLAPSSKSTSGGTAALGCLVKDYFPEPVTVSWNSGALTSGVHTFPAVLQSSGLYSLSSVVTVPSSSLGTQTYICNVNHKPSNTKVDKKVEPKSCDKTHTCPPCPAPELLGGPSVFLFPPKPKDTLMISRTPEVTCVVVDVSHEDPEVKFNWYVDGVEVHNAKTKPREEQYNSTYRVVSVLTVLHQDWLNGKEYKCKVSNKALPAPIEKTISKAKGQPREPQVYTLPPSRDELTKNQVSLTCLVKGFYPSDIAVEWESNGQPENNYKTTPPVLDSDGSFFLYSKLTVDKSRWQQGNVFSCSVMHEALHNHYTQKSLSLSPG
light: QSVLTQPPSVSGAPGQRVTISCTGSSSNIGAGYDVHWYQQLPGTAPKLLIYGNSNRPSGVPDRFSGSKSGTSASLAITGLQAEDEADYYCQSYDSSLSGVVFGGGTKLTVLGQPKAAPSVTLFPPSSEELQANKATLVCLISDFYPGAVTVAWKADSSPVKAGVETTTPSKQSNNKYAASSYLSLTPEQWKSHRSYSCQVTHEGSTVEKTVAPTECS
As to B2, in assay [2], the “EC50, fluorescence signal of rat NPR-A / CNGA2 (cGMP biosensor) / GCaMP6 CHO reporter cells” value was 17 nM. In assay [3], the “logEC50, cGMP quantification assay (HTRF), stable hNPRA-CHO k1 cells, isolated compound sample” value was -8.8; the “logEC50, cGMP quantification assay (HTRF), stable hNPRA-CHO k1 cells, purified compound sample, average of experiments” value was -9.2; the “logEC50, cGMP quantification assay (HTRF), transient hNPRA-HEK293 cells, purified compound sample, average of three experiments” value was -9.

B3: TPP-12897 (antibody)
heavy: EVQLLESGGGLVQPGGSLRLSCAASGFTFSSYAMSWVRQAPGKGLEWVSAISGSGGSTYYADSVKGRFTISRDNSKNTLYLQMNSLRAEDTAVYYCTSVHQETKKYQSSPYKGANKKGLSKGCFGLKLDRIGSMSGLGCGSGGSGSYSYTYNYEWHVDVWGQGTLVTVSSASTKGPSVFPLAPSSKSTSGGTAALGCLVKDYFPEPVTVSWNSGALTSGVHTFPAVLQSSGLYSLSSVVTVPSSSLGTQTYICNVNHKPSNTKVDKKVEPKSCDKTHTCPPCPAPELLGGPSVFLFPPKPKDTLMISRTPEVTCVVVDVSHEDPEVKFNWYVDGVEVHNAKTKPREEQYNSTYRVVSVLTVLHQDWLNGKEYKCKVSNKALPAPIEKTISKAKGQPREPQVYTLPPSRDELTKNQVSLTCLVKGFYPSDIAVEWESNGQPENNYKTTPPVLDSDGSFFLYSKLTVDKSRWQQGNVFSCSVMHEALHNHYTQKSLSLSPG
light: QSVLTQPPSVSGAPGQRVTISCTGSSSNIGAGYDVHWYQQLPGTAPKLLIYGNSNRPSGVPDRFSGSKSGTSASLAITGLQAEDEADYYCQSYDSSLDGVVFGGGTKLTVLGQPKAAPSVTLFPPSSEELQANKATLVCLISDFYPGAVTVAWKADSSPVKAGVETTTPSKQSNNKYAASSYLSLTPEQWKSHRSYSCQVTHEGSTVEKTVAPTECS
For the molecule B3, in assay [1], the “EC50, luminescence signal of rat NPR-B reporter cells” value was found to be 10 nM.
